In patent US20230147657A1 (INSERM INSTITUT NATIONAL DE LA SANT ET DE LA RECHERCHE M …, published 2023):
Read-outs that look alike come from different tables or passages of the source.

B1: Anti-45RC Variant D (antibody, human IgG1, kappa, V domains shown)
VH: EVQLVQSGAEVKKPGESLKISCKASGYTFTNYYIGWVRQMPGKGLEWIGDIFPGGDYANSNEKFKGQVTLSADKSISTAYLQLSSLKASDTAMYYCVRRNFDYWGQGTLVTVSS
VL: DIQLTQSPSFLSASVGDRVTITCSASSSVSYMHWFQQKPGKAPKLWIYNTSNLPSGVPSRFSGSGSGTEYTLTISSLQPEDFATYYCQQRSSYPLTFGGGTKVEIKR
notes: also called humanized ABIS-45RC variant D
B2: Anti-45RC Variant E (antibody, human IgG1, kappa, V domains shown)
VH: B1 VH
VL: EIVLTQSPDFQSVTPKEKVTITCSASSSVSYMHWFQQKPDQSPKLWIYNTSNLPSGVPSRFSGSGSGTDYTLTINSLEAEDAATYYCQQRSSYPLTFGGGTKVEIKR
notes: also called humanized ABIS-45RC variant E
B3: Anti-45RC Variant G (antibody, human IgG1, kappa, V domains shown)
VH: QVQLVESGGGLVKPGGSLRLSCAASGYTFTNYYIGWIRQAPGKGLEWIGDIFPGGDYANSNEKVKGRFTLSADTAKNSAYLQMNSLRAEDTAVYYCVRRNFDYWGQGTLVTVSS
VL: B2 VL
notes: also called humanized ABIS-45RC variant G
B4: Anti-45RC Variant F (antibody, human IgG1, kappa, V domains shown)
VH: B1 VH
VL: EIVLTQSPATLSLSPGERATLSCSASSSVSYMHWFQQKPGQAPRLWIYNTSNLPSGIPARFSGSGSGTDYTLTISSLEPEDFAVYYCQQRSSYPLTFGGGTKVEIKR
notes: also called humanized ABIS-45RC variant F
B5: Anti-45RC Variant H (antibody, human IgG1, kappa, V domains shown)
VH: B3 VH
VL: B4 VL
notes: also called humanized ABIS-45RC variant H

Legend:
Assay in all cases: flow cytometry on T cells of human PBMC; biotin anti-human IgG + streptavidin PerCP-Cy5.5
human CD45RC [1] = target: T1, human CD45RC (human, UniProt P08575 26-1306)
T1 construct: Native protein on human blood leukocytes / PBMC / T cells of healthy volunteers; also called hCD45RC
T1 sequence: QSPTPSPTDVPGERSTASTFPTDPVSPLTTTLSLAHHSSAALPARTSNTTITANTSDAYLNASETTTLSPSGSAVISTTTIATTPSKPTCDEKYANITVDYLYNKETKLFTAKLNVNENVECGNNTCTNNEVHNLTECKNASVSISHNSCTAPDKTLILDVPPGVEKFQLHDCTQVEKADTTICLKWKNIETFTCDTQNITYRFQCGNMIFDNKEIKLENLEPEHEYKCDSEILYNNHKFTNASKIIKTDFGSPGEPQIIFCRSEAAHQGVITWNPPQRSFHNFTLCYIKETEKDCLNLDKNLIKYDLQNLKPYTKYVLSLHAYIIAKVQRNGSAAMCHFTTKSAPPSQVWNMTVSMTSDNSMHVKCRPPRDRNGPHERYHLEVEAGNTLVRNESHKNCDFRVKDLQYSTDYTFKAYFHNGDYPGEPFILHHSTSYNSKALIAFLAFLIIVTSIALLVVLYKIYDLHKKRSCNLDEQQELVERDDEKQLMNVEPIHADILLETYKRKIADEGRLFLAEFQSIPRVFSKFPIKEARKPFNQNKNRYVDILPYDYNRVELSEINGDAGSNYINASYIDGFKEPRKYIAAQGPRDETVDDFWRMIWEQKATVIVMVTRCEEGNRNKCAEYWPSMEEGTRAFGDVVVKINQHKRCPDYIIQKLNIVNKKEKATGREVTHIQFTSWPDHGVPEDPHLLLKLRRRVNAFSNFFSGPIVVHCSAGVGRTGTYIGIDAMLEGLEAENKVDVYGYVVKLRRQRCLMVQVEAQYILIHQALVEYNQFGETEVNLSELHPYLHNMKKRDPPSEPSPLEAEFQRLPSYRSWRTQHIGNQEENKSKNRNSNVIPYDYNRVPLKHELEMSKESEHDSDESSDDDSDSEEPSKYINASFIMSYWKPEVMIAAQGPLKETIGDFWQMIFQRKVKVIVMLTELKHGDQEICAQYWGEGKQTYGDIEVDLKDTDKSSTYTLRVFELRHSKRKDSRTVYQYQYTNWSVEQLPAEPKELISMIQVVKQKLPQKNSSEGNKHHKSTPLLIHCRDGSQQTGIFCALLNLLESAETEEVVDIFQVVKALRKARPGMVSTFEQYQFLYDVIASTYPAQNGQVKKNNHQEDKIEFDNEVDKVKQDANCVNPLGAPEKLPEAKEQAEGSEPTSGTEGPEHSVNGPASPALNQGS

human CD45RC [2] = target: T1, human CD45RC; remark: listed apart in the source
human CD45RC [3] = target: T1, human CD45RC; remark: listed apart in the source

Binder	% of T cells in the CD45RC gate at 1 µg/mL (human CD45RC [2]) [%]	% of T cells in the CD45RC gate at 2 µg/mL (human CD45RC [2]) [%]	also measured
B1			% of T cells in the CD45RC gate at 1 µg/mL (human CD45RC [1]): 57.2%; % of T cells in the CD45RC gate at 2 µg/mL (human CD45RC [1]): 59.5%
B2	53.7	48.9	
B3	55.7	54.2	
B4	58.8	57.2	
B5			% of T cells in the CD45RC gate at 1 µg/mL (human CD45RC [3]): 29.5%; % of T cells in the CD45RC gate at 2 µg/mL (human CD45RC [3]): 13.2%
